# Measurements taken from publication doi:10.1101/2020.06.17.157982.
# Biological target: biotinylated human ACE2 ectodomain, which contains its natural dimerization domain (ACROBiosystems AC2-H82E6) (human) (UniProt Q9BYF1)
# Experiment: FACS
# biotinylated human ACE2 ectodomain, which contains its natural dimerization domain (ACROBiosystems AC2-H82E6) (human), sequence (Q9BYF1 18-740): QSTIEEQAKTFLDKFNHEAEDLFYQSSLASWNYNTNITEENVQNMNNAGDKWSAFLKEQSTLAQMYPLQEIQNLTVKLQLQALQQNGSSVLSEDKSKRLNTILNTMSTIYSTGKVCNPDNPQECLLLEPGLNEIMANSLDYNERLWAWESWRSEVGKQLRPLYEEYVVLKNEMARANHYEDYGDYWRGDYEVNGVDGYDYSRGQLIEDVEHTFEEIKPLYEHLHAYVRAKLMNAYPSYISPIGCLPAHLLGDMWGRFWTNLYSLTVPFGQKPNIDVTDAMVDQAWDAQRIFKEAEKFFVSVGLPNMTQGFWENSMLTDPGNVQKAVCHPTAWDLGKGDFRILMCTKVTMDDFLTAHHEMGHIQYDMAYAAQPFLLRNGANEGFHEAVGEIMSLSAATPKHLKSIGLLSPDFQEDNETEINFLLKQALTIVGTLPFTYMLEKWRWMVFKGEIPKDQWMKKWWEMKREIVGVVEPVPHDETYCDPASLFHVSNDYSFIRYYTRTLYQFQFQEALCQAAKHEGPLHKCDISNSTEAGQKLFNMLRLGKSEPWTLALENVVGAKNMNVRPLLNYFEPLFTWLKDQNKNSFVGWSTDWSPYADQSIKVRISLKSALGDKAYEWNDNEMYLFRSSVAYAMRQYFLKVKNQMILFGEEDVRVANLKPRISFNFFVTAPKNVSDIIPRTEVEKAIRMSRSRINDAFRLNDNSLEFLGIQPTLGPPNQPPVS
row,Substance,Kd
1,"ZXC21 RBD, yeast-displayed",> 1000 nM
2,"WIV1 RBD, yeast-displayed",0.017 nM
3,"ZC45 RBD, yeast-displayed",> 1000 nM
